Measurements published in EP4659811A1 (Université de Strasbourg, dated 2025).

Tests used:
[1] = molecular target: VP1 capsid protein on BKV pseudovirions of genotype IVc2 (A-66H; AB369093) (BK virus genotype IVc2 (A-66H)); assay: cell-based or functional assay
[2] = molecular target: VP1 capsid protein on BKV pseudovirions of genotype II (GBR-12; AB263920) (BK virus genotype II (GBR-12)); assay: cell-based or functional assay
[3] = molecular target: VP1 capsid protein on BKV pseudovirions of genotype Ia (BK-D; JF894228) (BK virus genotype Ia (BK-D)); assay: cell-based or functional assay
[4] = molecular target: T1, VP1 pentamer of BKV genotype IV (recombinant) (BK virus genotype IV, UniProt P14996 30-300); assay: ELISA, coated VP1 pentamer
T1 construct: also called GIV; VP1 BKV subtype IV; not shown: N-terminal His-tag of pESPRIT002; C-terminal biotin acceptor peptide (BAP) of pESPRIT002

[5] = molecular target: T2, VP1 pentamer of BKV genotype II (recombinant) (BK virus genotype II, UniProt P14996 30-300); assay: ELISA, coated VP1 pentamer
T2 construct: also called GII; VP1 geno II pentamer; not shown: N-terminal His-tag of pESPRIT002; C-terminal biotin acceptor peptide (BAP) of pESPRIT002

Binder	Neutralization PSV IC50 [1]	Neutralization PSV IC50 [2]	Neutralization PSV IC50 [3]	EC50 [4]	EC50 [5]	binding result [4]	binding result [5]
antibody B9P6 (antibody, V domains shown) VH: EVQLVESGGGLVQPGGSLRLSCAASGFTFRSYTMDWVRQAPGKGLEWVSCISGSSNHKYYADSVRGRFTISRDNAKNSLFLQMNSLRAEDSAVYYCAREDDILTPLYGMDVWGPGTTVTVSS VL: EIVLTQSPDTLSLSPGARATLSCRASQSVRSNYLAWYQQKPGQAPRLLIYGASSRATAIPDRFSGSGSGTDFTLTITRLEPEDFAVYYCHQYGSSPRTFGQGTKVEIK	0.0176 µg/mL	0.0002 µg/mL	0.0371 µg/mL	0.12 µg/mL	0.035 µg/mL	–	–
antibody E9P7 (antibody, V domains shown) VH: EVQLVESGGGLVQPGGSLRLSCTASGFTFRSYTMDWVRQAPGKGLEWVSCISGSSNHKYYADSVRGRFTISRDNAKNSLLLQMNSLRAEDSAVYYCAREDDILTPLYGMDVWGPGTTVTVSS VL: EIVLTQSPDTLSLSPGARATLSCRASQSVRSNYLAWYQQKPGQAPRLLIYGASSRATAIPDRFSGSGSGTDFTLTITRLEPEDFAVYYCHQYGSSPRTFGQGTKVEIK	0.0333 µg/mL	0.0003 µg/mL	0.277 µg/mL	0.2 µg/mL	0.1 µg/mL	–	–
antibody G11P1 (antibody, V domains shown) VH: EVQLVESGGGLVQPGGSLRLSCAASGFTFRSYSMDWVRQAPGKGLEWVSYISGSSNQKYYTDSVRGRFTISRDNAKNSLFLQMNSLRAEDSAVYYCAREDDILTPLYGMDVWGPGTTVTVSS VL: EIVLTQSPDTLSLSPGARATLSCRASQSVRSNYLAWYQQKPGQAPRLLIYGASSRATAIPDRFSGSGSGTDFTLTITRLEPEDFAVYYCHQYASSPRTFGQGTKVEIK	0.02 µg/mL	0.0008 µg/mL	0.112 µg/mL	0.035 µg/mL	0.055 µg/mL	–	–
antibody E11P6 (antibody, V domains shown) VH: EVQLVESGGGLVQPGGSLRLSCAASGFTFRSYSMDWVRQAPGKGLEWVSYISGSSNQKYYTDSVRGRFTISRDNAKNSLFLQMNSLRAEDSAVYYCAREDDILTPLYGMDVWGPGTTVTVSS VL: EIVLTQSPDTLSLSPGARATLSCRASQSVRSNYLAWYQQKPGQAPRLLIYGASSRATAIPDRFSGSGSGTDLTLTITRLEPEDFAVYYCHQYASSPRTFGQGTKVEIK	0.0452 µg/mL	0.0028 µg/mL	0.216 µg/mL	0.12 µg/mL	0.09 µg/mL	–	–
antibody C6P8 (antibody, V domains shown) VH: EVQLVESGGGLVQPGGSLKLSCAASGFTFSGSEIHWVRQASGKGLEWIGRVRSRANRHATGYSESVKGRFTISRDDSKNTASLQLNSLKIEDTAVYYCTGVRGVISRYFAMDVWGQGTTVTVSS VL: SYVLTQTPSVSVAPGQTARITCGGNNIGSNSVHWYQQKPGQAPILVVYDDSERPSGIPERFSGSNSGNTATLTISRVEGGDEADYQCQVWDRRGDLLVFGGGTKLTVL	1.74 µg/mL	0.44 µg/mL	6.92 µg/mL	4 µg/mL	3 µg/mL	–	–
antibody C10P7 (antibody, V domains shown) VH: QVQLVQSGSEVKKPGTSVKVSCKASGETYVGHSISWVRQAPGAGLEWMGWISLHNGNVKYAQKLQGRVTMTTDTSTITAYMELRNLTSDDTAVYYCARVPMKIYGVIVFGEYYYDQLDVWGQGTTVTVSS VL: QSALTQPPSASGSPGQSVTISCTGTGSDVGGYNYVSWYQQHPGKAPKLMIYEVSKRPSGVPDRFSGSKSGNTASLTVSGLQAEDEADYYCSSYAGSKVVFGGGTKLTVL	> 50 µg/mL	11.2 µg/mL	6.56 µg/mL	18 µg/mL	8 µg/mL	–	–
antibody E10P2 (antibody, V domains shown) VH: EVQLLESGGALVQPGGSLRLSCAASGFTFRSYAMNWVRQAPGKGLEWVSSLSSSGTTTYYADSVKGRFTISRDNSKNTMYLQMDSLRGEDTAVYYCAKDRNAQWLGSEPLDPWGQGTLVTVSS VL: EIVLTQSPGTLSLSPGERATLSCRASQSVSSSYLAWYQQKPGQAPRLLIYGASSRATGIPDRFSGSGSGTDFTLTISSLQPDDFAIYYCQQAYTFPWTFGQGTKLEIK	> 50 µg/mL	20.1 µg/mL	1.64 µg/mL	–	–	no binding (tested: starting at 50 µg/mL)	no binding (tested: starting at 50 µg/mL)
antibody B9P4 (antibody, V domains shown) VH: EVQLVESGGGVVQPGRSLRLSCAASGFTFSSYGMHWVRQAPGKGLEWVAVISKDGSNKYEADFVKGRFTISRDNSKNTLYLQMNSLRAEDTAVYYCAKIPLRRYSDSGDYSSGDFWGQGTLVTVSS VL: DVVMTQSPLSLTVTLGQPASISCRSSENLVYSDGNTYLSWFQQRPGQSPRRLIYKVSTRDSGVPDRFSGSGSGTDFTLKISRVEAEDVGVYYCMQTTHWPPLTFGGGTKVEIK	> 50 µg/mL	16.3 µg/mL	4.96 µg/mL	≥ 10 µg/mL	≥ 7 µg/mL	–	–
antibody G8P7 (antibody, V domains shown) VH: QLQLQESGPGLVQPSETLSLTCTVSGGYISTSSYYWGWIRQPPGKGLEWIGSIEYSGSTYYNPSLKSRVTISVDTSKNQFSLKLSSVTAADTAVYYCASANSKYYDSGGYYAPGALDLWGQGTMVTVSS VL: EIVMTQSPATLSVSPGERATLSCRASQSVSSHLAWYQHKRGQAPRLLIYAASSRATGIPARFSGRGSGTEFTLTISSLQSEDFAVYYCQQYNNWPPGYSFGQGTKLEIK	> 50 µg/mL	21.3 µg/mL	> 50 µg/mL	5 µg/mL	25 µg/mL	–	–
antibody B5P4 (antibody, V domains shown) VH: QVQLVQSGAEVKKPGSSVKVSCKASGGRFSRYGSSWVRQAPGQGLEWMGGIIPLLGTANYAQKFQDRVSITADESTSTVYMHLSSLRSEDTAVYYCATARREYDRPGAEYFIQWGQGTLVTVSS VL: EIVMTQSPATLSVSPGERATLSCRASQSVSTNLAWYQQKPGQAPRLLIYDAFLRATGIPARFSGSGSGTEFTLTISSLQPEDFAVYYCQQYNYWPPLTFGGGTKVEIK	> 50 µg/mL	> 50 µg/mL	> 3.12 µg/mL	–	–	no binding (tested: starting at 50 µg/mL)	no binding (tested: starting at 50 µg/mL)
antibody E5P6 (antibody, V domains shown) VH: EVQLVESGGGVVQPGRSLRLSCAASGFIFNNHGMHWVRQAPGKGLEWVAGISYDGKKEYYIGSVKGRFTISRDNSRNTLYLHMNGLRPEDTAVYYCAKEAYGSGSPCDYWGQGTLVTVSS VL: EIVLTQSPGTLSLSPGERATLSCRASQRVSSNYLAWYQQKPGQAPRLLIYGASSRATGIPDRFSGSGSGTDFTLTISRLEPEDFAVYYCQQYGTSPRSFGRGTKLEIK	> 50 µg/mL	> 50 µg/mL	> 50 µg/mL	5 µg/mL	6 µg/mL	–	–
antibody C11P1 (antibody, V domains shown) VH: QVQLQESGPGLVKPSETLSLTCTVSGGSIRNSYWSWIRQPPGKGLEWIGYIYYTGTTNSNPSLKSRATISVHMSQNQISLKLNSVTPADTAVYYCAQGGGSGDLHYWGQGTLVTVSS VL: NFMLTQPASVSGSPGQSITISCTGTRSDVGGYNYVSWYQQHPGKAPKLMIYDISSRPSGVSNRFSASKSGNTASLTISGLQAEDEADYYCISFATGYTWVFGGGTRLTVL	0.0942 µg/mL	0.0015 µg/mL	0.351 µg/mL	0.22 µg/mL	0.045 µg/mL	–	–
antibody E7P5 (antibody, V domains shown) VH: QVQLQESGPGLVKPSETLSLTCTVSGGSIRNSYWSWIRQSPGKGLEWIGYIYYTGSTNSNPSLKSRLTVSVHMSQNQISLKLNSVTPADTAVYYCAQGGGSGDLHYWGQGTLVTVSS VL: QSALTQPASVSGSPGQSITISCTGTRSDVGGYNYVSWYQQHPGKAPKLIIYDISSRPSGVSNRFSASKSGNTASLTISGLQAEDEADYYCISFATGYTWVFGGGTSLTVL	0.0056 µg/mL	0.0002 µg/mL	0.0719 µg/mL	0.08 µg/mL	0.055 µg/mL	–	–
antibody G5P1 (antibody, V domains shown) VH: QVQLQESGPGLVKPSGTLSLTCTVSGGSIRNSYWSWIRQPPGKGLEWIGYIYYTGTTNSNPSLKSRVTISVHMSRNQISLKLNSVTPADTAVYYCAQGGGSGDLHYWGQGTLVTVSS VL: NFMLTQPASVSGSPGQSITISCTGTRSDVGGYNYVSWYQQHPGKAPKLMIYDISSRPSGVSNRFSASKSGNTASLTISGLQAEDEADYYCISFATGYTWVFGGGTRLTVL	0.108 µg/mL	0.0016 µg/mL	0.538 µg/mL	2.5 µg/mL	0.07 µg/mL	–	–
antibody C4P7 (antibody, V domains shown) VH: EVQLLESGGGLVQPGGSLRLSCAASGFTFSSYAMSWVRQAPGKGLEWVSSLTGSGGSTYYRDSVKGRFTIFRDNSKKTLYMQMNSLRAEDTAVYYCAKEGAYSYDFWYFDLWGRGTLVTVSS VL: EIVLTQSPGTLSLSPGERATLSCRASQTVSGNYLAWYQQKPGQSPSLLIYGASSRATGIPDRFTGSGSGTDFTLTISRLEPADFAVYYCQQYGRPLTFGGGTKVEIK	> 3.12 µg/mL	0.0609 µg/mL	0.493 µg/mL	–	–	–	–
antibody F11P5 (antibody, V domains shown) VH: QVQLVQSGSELKKPGASVKVSCKASAYTFTNSAINWVRQAPGQGLEWMGWINTNTGNPAYAQGFRGRFVFSLDTSVSEAYLQISNLKAEDTATYYCTVPYNFGGDHNSYYFFGVDIWGQGTTVTVSS VL: QSALTQPASVSGSPGQSITISCTGSSSDVGSYNLVSWFQQHPAKAPKVMIYEGTKRPSGVSDRFSGSKSGNTASLTISGLQAEDEADYYCCSYAGSNTFVFGTGTKVSVL	46.5 µg/mL	1.56 µg/mL	0.492 µg/mL	–	–	–	–
